Data: article PMC2821528 (Molecular Microbiology, 2009)
Read-outs that look alike come from different tables or passages of the source.

Experiments:
TolB (Escherichia coli) [1] = molecular target: TolB (Escherichia coli) (UniProt P0A855); details: cited from earlier work
TolB (Escherichia coli) [2] = molecular target: TolB (Escherichia coli) (UniProt P0A855); details: cited from earlier work; remark: listed apart in the source
TolB (E. coli) [3] = molecular target: TolB (E. coli) (UniProt P0A855); test: SPR
TolB (E. coli) [4] = molecular target: TolB (E. coli) (UniProt P0A855); test: SPR; remark: listed apart in the source
Pal (Escherichia coli) = Pal (Escherichia coli) (UniProt P0A912); details: cited from earlier work
TolB = TolB (E. coli, UniProt P0A855 22-430); test: SEC

Molecule: Colicin E9 (from UniProt P09883)
- Kd (TolB (Escherichia coli) [1]): 1000 nM
- Kd (TolB (Escherichia coli) [2]): 90 nM

Molecule: TA_(1–107), 107-residue peptide of the translocation domain of colicin A (domain or fragment)
- Kd (TolB (E. coli) [3]): 1600 nM
- Kd (TolB (E. coli) [4]): 24300 nM

Molecule: TolB (from UniProt P0A855)
- Kd (Pal (Escherichia coli)): 90 nM

B1: Pal, soluble periplasmic domain (residues 65–173) (domain or fragment, E. coli, UniProt P0A912 65-173, looked up)
chain: LQQNNIVYFDLDKYDIRSDFAQMLDAHANFLRSNPSYKVTVEGHADERGTPEYNISLGERRANAVKMYLQGKGVSADQISIVSYGKEKPAVLGHDEAAYSKNRRAVLVY
- binding result (TolB): binds
